Results as given in the supplement of paper PMC6755084.

B1: minF1; a variant is named by its letters at N, in order (parent)
chain: GAGACCGCAACTGAAAAGTTGTTATCAGAAATGNNNGGNTNNNTTTCTGCACGTAGAAGCAAAAGGC
B2: minF1; a variant is named by its letters at N, in order (parent)
chain: GAGACCGCAACTGAAAAGTTGTTANNNNAANGNNNGGTTGAATTTCTGCACGTAGAAGCAAAAGGC
B3: minF1; a variant is named by its letters at N, in order (parent)
chain: GAGACCGCAACTGAAAAGTTGTTNNNNAANNNNNGGNTNAATTTCTGCACGTAGAAGCAAAAGGC

Variants of: B1
Experiment: fraction ligated after 30 min (ligated reads / total reads); higher = more ligase activity
Settings: with F1*subA RNA substrate (template-directed ligation), 42 °C
Summary of the method: (§1)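 Oligo-pool templates of minimized ligase ribozyme variants were PCR-amplified, T7-transcribed and gel-purified. Ligated and unligated RNAs were gel-separated, reverse transcribed with barcoded primers, and MiSeq-sequenced; core bases were filtered at quality ≥30. Fraction ligated per variant was ligated reads over total reads.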
ATGTGAA gave a fraction ligated of 0.0281.
GTGTGAA gave a fraction ligated of 0.0136.
In the case of ATGTGAA A24T T25C C26A A27G G28A A31T T32G, the fraction ligated is reported as 0.0261.
ATGTGAA A27G G28A A31T T32G was tested, and the fraction ligated was 0.733.
Work on ATGTGAA A31T T32G yielded a fraction ligated of 0.65.
ATGTGAA C26A A27G G28A A31T T32G showed a fraction ligated of 0.0728.
In the case of ATGTGAA G28A A31T T32G, the fraction ligated is reported as 0.52.
Work on ATGTGAA T23A A24T T25C C26A A27G G28A A31T T32G yielded a fraction ligated of 0.228.
ATGTGAA T25C C26A A27G G28A A31T T32G gave a fraction ligated of 0.0163.
Variant ATGTGAA T32G has a fraction ligated of 0.0137.

Variants of: B2
Experiment: as above
Settings: with F1*subA RNA substrate (template-directed ligation), 42 °C
Summary of the method: as §1
In the case of CAAAGATG A24T A30T, the fraction ligated is reported as 0.0148.
For CAAAGATG A30T, the fraction ligated was 0.00974.
Variant TAAAGATG A30T has a fraction ligated of 0.021.
With CAAAGATG T23A A24T A30T the fraction ligated was 0.0275.
Work on CAGAGATG yielded a fraction ligated of 0.00233.
For TAGAGATG, the fraction ligated was 0.00517.
Work on CAGAGATG A24T yielded a fraction ligated of 0.00326.
In the case of CAGAGATG A24T A30T, the fraction ligated is reported as 0.0149.
In the case of CAGAGATG A30T, the fraction ligated is reported as 0.0134.
In the case of TAGAGATG A30T, the fraction ligated is reported as 0.0449.
With CAGAGATG T23A A24T the fraction ligated was 0.00547.
Work on CAGAGATG T23A A24T A30T yielded a fraction ligated of 0.0668.
CAGATATG gave a fraction ligated of 0.00456.
With TAGATATG the fraction ligated was 0.00408.
Work on CAGATATG A24T yielded a fraction ligated of 0.00546.
CAGATATG T23A A24T showed a fraction ligated of 0.00616.
Variant CAGATGAG has a fraction ligated of 0.00664.
In the case of TAGATGAG, the fraction ligated is reported as 0.00428.
For CAGATGAG A24T, the fraction ligated was 0.00352.
Variant CAGATGAG T23A A24T has a fraction ligated of 0.00151.
In the case of CAGATGAT, the fraction ligated is reported as 0.0096.
TAGATGAT gave a fraction ligated of 0.00267.
CAGATGAT A24T gave a fraction ligated of 0.00819.
Variant CAGATGAT A24T T38G G40T has a fraction ligated of 0.00536.
CAGATGAT A24T T38G G40T A41G showed a fraction ligated of 0.0273.
With CAGATGAT T23A A24T the fraction ligated was 0.0249.
In the case of CAGATGAT T23A A24T T38G G40T, the fraction ligated is reported as 0.0102.
For CAGATGAT T23A A24T T38G G40T A41G, the fraction ligated was 0.0927.
For CAGATGAT T38G G40T, the fraction ligated was 0.00757.
Variant TAGATGAT T38G G40T has a fraction ligated of 0.00516.
CAGATGAT T38G G40T A41G gave a fraction ligated of 0.0186.
In the case of TAGATGAT T38G G40T A41G, the fraction ligated is reported as 0.025.
CAGATGTG gave a fraction ligated of 0.00446.
TAGATGTG showed a fraction ligated of 0.00059.
In the case of CAGATGTG A24T, the fraction ligated is reported as 0.00498.
CAGATGTG T23A A24T was tested, and the fraction ligated was 0.00275.
TCAAGATG showed a fraction ligated of 0.00472.
TCAAGATG A30T showed a fraction ligated of 0.111.
Work on TCAATATG yielded a fraction ligated of 0.00928.
With TCAATGAG the fraction ligated was 0.00836.
Variant TCAATGAT has a fraction ligated of 0.0159.
TCAATGAT T38G G40T gave a fraction ligated of 0.0188.
Work on TCAATGAT T38G G40T A41G yielded a fraction ligated of 0.302.
For TCAATGTG, the fraction ligated was 0.00417.
TCAGAATG was tested, and the fraction ligated was 0.00903.
TCAGAATG G32T gave a fraction ligated of 0.00623.
In the case of TCAGAGAG, the fraction ligated is reported as 0.00214.
TCAGAGAG G32T gave a fraction ligated of 0.011.
In the case of TCAGAGAT, the fraction ligated is reported as 0.00503.
TCAGAGAT G32T gave a fraction ligated of 0.00472.
With TCAGAGAT G32T T38G G40T the fraction ligated was 0.00839.
For TCAGAGAT G32T T38G G40T A41G, the fraction ligated was 0.0724.
TCAGAGAT T38G G40T showed a fraction ligated of 0.004.
Variant TCAGAGAT T38G G40T A41G has a fraction ligated of 0.0517.
TCAGAGGA G32T showed a fraction ligated of 0.0037.
For TCAGAGGA G32T G36T T38G G40T, the fraction ligated was 0.0174.
Work on TCAGAGGA G32T G36T T38G G40T A41G yielded a fraction ligated of 0.0306.
TCAGAGGA G32T G36T T38G T39G G40T A41T gave a fraction ligated of 0.00781.
In the case of TCAGAGGA G32T G36T T38G T39G G40T A41T A42C, the fraction ligated is reported as 0.00198.
Variant TCAGAGGA G32T G36T T38G T39G G40T A41T A42G has a fraction ligated of 0.00154.
Work on TCAGAGGA G32T G36T T38G T39G G40T A41T A42T yielded a fraction ligated of 0.00119.
TCAGAGGA G32T T38G G40T gave a fraction ligated of 0.00434.
In the case of TCAGAGGA G32T T38G G40T A41G, the fraction ligated is reported as 0.00714.
In the case of TCAGAGGG G32T, the fraction ligated is reported as 0.00695.
TCAGAGGT G32T showed a fraction ligated of 0.00299.
In the case of TCAGAGGT G32T T38G G40T, the fraction ligated is reported as 0.00529.
TCAGAGGT G32T T38G G40T A41G gave a fraction ligated of 0.0316.
For TCAGAGTG, the fraction ligated was 0.0048.
TCAGAGTG G32T gave a fraction ligated of 0.00848.
TCAGGATG showed a fraction ligated of 0.00705.
TCAGGATG A30T showed a fraction ligated of 0.163.
In the case of TCAGTATG, the fraction ligated is reported as 0.011.
TCAGTGAG was tested, and the fraction ligated was 0.00523.
With TCAGTGAT the fraction ligated was 0.0235.
TCAGTGAT T38G G40T gave a fraction ligated of 0.0275.
TCAGTGAT T38G G40T A41G was tested, and the fraction ligated was 0.392.
Variant TCAGTGTG has a fraction ligated of 0.00427.
In the case of TCGAGATG, the fraction ligated is reported as 0.00545.
For TCGAGATG A30T, the fraction ligated was 0.205.
In the case of TCGATATG, the fraction ligated is reported as 0.0107.
TCGATGAG gave a fraction ligated of 0.00384.
For TCGATGAT, the fraction ligated was 0.0366.
TCGATGAT T38G G40T was tested, and the fraction ligated was 0.0543.
Variant TCGATGAT T38G G40T A41G has a fraction ligated of 0.576.
Variant TCGATGTG has a fraction ligated of 0.0076.
Variant AGAAGATG A24C A30T has a fraction ligated of 0.0111.
AGAAGATG A24T A30T was tested, and the fraction ligated was 0.00936.
CGAAGATG A24T A30T gave a fraction ligated of 0.0664.
With AGAAGATG A30T the fraction ligated was 0.0065.
CGAAGATG A30T gave a fraction ligated of 0.0292.
In the case of TGAAGATG A30T, the fraction ligated is reported as 0.054.
AGAAGATG T23A A24C A30T gave a fraction ligated of 0.00911.
For AGAAGATG T23A A24T A30T, the fraction ligated was 0.00339.
For CGAAGATG T23A A24T A30T, the fraction ligated was 0.0868.

Variants of: B3
Experiment: as above
Settings: with F1*subA RNA substrate (template-directed ligation), 42 °C
Summary of the method: as §1
CAAAGGATGTG A29T showed a fraction ligated of 0.00429.
In the case of TAAAGGATGTG A29T, the fraction ligated is reported as 0.00359.
Variant AAAAGGATGTG A29T has a fraction ligated of 0.00415.
In the case of CAAAGGATGTG T23A A29T, the fraction ligated is reported as 0.00472.
In the case of TAAAGGATGTG T23A A29T, the fraction ligated is reported as 0.00526.
CAGAGGATGTG was tested, and the fraction ligated was 0.00332.
With TAGAGGATGTG the fraction ligated was 0.00132.
For AAGAGGATGTG, the fraction ligated was 0.00256.
With CAGAGGATGTG A29T the fraction ligated was 0.00872.
TAGAGGATGTG A29T showed a fraction ligated of 0.0101.
With AAGAGGATGTG A29T the fraction ligated was 0.00554.
Variant CAGAGGATGTG T23A has a fraction ligated of 0.00547.
Work on TAGAGGATGTG T23A yielded a fraction ligated of 0.00277.
CAGAGGATGTG T23A A29T gave a fraction ligated of 0.00891.
In the case of TAGAGGATGTG T23A A29T, the fraction ligated is reported as 0.00989.
For CAGATGATGTG, the fraction ligated was 0.00402.
TAGATGATGTG gave a fraction ligated of 0.00308.
For AAGATGATGTG, the fraction ligated was 0.0055.
In the case of CAGATGATGTG T23A, the fraction ligated is reported as 0.00284.
In the case of TAGATGATGTG T23A, the fraction ligated is reported as 0.00371.
With CAGATGGAGTG the fraction ligated was 0.00344.
TAGATGGAGTG showed a fraction ligated of 0.0023.
For AAGATGGAGTG, the fraction ligated was 0.000852.
CAGATGGAGTG T23A gave a fraction ligated of 0.00336.
TAGATGGAGTG T23A was tested, and the fraction ligated was 0.
CAGATGGATGT gave a fraction ligated of 0.00272.
TAGATGGATGT showed a fraction ligated of 0.00222.
AAGATGGATGT showed a fraction ligated of 0.0029.
CAGATGGATGT A40G was tested, and the fraction ligated was 0.0159.
With TAGATGGATGT A40G the fraction ligated was 0.00383.
AAGATGGATGT A40G was tested, and the fraction ligated was 0.00604.
CAGATGGATGT T23A showed a fraction ligated of 0.00559.
TAGATGGATGT T23A was tested, and the fraction ligated was 0.00257.
CAGATGGATGT T23A A40G showed a fraction ligated of 0.0214.
TAGATGGATGT T23A A40G showed a fraction ligated of 0.00768.
Variant CAGATGGATTG has a fraction ligated of 0.00607.
TAGATGGATTG showed a fraction ligated of 0.00552.
Work on AAGATGGATTG yielded a fraction ligated of 0.00494.
CAGATGGATTG T23A showed a fraction ligated of 0.00704.
For TAGATGGATTG T23A, the fraction ligated was 0.00337.
For CAGATGGTGTG, the fraction ligated was 0.00442.
Work on TAGATGGTGTG yielded a fraction ligated of 0.0039.
AAGATGGTGTG was tested, and the fraction ligated was 0.00306.
Work on CAGATGGTGTG T23A yielded a fraction ligated of 0.0045.
TAGATGGTGTG T23A was tested, and the fraction ligated was 0.00156.
TCAAGGATGTG was tested, and the fraction ligated was 0.00272.
In the case of ACAAGGATGTG, the fraction ligated is reported as 0.00477.
With TCAAGGATGTG A29T the fraction ligated was 0.00599.
ACAAGGATGTG A29T was tested, and the fraction ligated was 0.00252.
In the case of TCAAGGATGTG T23A, the fraction ligated is reported as 0.00271.
Work on TCAAGGATGTG T23A A29T yielded a fraction ligated of 0.00621.
Work on TCAATGATGTG yielded a fraction ligated of 0.00347.
Work on ACAATGATGTG yielded a fraction ligated of 0.00381.
Work on TCAATGATGTG T23A yielded a fraction ligated of 0.00128.
In the case of TCAATGGAGTG, the fraction ligated is reported as 0.00287.
ACAATGGAGTG showed a fraction ligated of 0.00318.
For TCAATGGAGTG T23A, the fraction ligated was 0.00168.
With TCAATGGATGT the fraction ligated was 0.00761.
Variant ACAATGGATGT has a fraction ligated of 0.00325.
In the case of TCAATGGATGT A40G, the fraction ligated is reported as 0.0177.
Variant ACAATGGATGT A40G has a fraction ligated of 0.0105.
TCAATGGATGT T23A showed a fraction ligated of 0.00522.
With TCAATGGATGT T23A A40G the fraction ligated was 0.00963.
